According to patent publication US11008403 (dated 2021):

T1: cyno TfR ECD (cynomolgus)
T1 chain: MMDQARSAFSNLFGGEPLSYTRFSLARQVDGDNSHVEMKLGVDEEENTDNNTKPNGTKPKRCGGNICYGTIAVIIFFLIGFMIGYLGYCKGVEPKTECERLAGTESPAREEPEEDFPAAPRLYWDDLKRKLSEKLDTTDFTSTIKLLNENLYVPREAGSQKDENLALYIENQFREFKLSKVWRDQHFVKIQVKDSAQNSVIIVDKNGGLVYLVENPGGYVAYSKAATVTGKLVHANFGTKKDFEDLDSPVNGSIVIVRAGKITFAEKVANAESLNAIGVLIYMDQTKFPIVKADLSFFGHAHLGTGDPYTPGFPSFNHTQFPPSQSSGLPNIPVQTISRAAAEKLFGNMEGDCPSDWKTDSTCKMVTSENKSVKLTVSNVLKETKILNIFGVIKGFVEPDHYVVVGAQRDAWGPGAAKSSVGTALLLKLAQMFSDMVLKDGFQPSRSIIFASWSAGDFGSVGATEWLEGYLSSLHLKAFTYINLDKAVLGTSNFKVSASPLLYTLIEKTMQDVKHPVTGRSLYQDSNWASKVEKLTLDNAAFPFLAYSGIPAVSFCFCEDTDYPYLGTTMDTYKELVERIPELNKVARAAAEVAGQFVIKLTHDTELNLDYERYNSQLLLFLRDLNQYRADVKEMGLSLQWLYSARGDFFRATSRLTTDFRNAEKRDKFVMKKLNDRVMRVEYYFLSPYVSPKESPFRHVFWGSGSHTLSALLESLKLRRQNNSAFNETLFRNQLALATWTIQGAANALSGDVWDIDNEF


Experiments:
[1] = molecular target: human TfR ECD (human); assay: ELISA
[2] = molecular target: T1, cyno TfR ECD; assay: ELISA

Sequence of human TfR ECD (human) (chain, as listed by the source): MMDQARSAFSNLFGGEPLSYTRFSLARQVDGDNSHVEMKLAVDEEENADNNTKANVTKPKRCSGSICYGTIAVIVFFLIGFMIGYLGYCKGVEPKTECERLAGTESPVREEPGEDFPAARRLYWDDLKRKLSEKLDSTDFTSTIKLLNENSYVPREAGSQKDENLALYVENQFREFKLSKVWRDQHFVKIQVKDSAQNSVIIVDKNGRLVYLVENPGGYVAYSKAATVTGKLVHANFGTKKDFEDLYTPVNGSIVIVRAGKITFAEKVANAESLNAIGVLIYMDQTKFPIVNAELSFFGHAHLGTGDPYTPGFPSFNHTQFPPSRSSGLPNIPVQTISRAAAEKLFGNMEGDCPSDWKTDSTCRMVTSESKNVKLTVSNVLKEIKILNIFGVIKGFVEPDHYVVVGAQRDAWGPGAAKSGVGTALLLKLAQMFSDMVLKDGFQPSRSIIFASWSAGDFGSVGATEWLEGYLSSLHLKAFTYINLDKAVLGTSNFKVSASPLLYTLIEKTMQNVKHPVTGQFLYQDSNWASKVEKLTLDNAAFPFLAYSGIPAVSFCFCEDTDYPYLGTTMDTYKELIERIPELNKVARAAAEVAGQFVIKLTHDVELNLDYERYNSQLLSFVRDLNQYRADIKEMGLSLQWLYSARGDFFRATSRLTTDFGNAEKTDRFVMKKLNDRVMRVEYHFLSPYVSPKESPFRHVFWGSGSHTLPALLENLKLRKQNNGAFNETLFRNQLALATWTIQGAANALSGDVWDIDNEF

Binder | EC50 [1] [ng/mL] | EC50 [2] [ng/mL]
hu15G11.v5 HC Y27A (antibody, V domains shown) VH: EVQLVQSGAEVKKPGASVKVSCKASGATFTSYWMHWVRQAPGQRLEWIGEINPTNGRTNYIEKFKSRATLTVDKSASTAYMELSSLRSEDTAVYYCARGTRAYHYWGQGTMVTVSS VL: DIQMTQSPSSLSASVGDRVTITCRASDNLYSNLAWYQQKPGKSPKLLVYDATNLADGVPSRFSGSGSGTDYTLTISSLQPEDFATYYCQHFWGTPLTFGQGTKVEIK | 21.1 | 1470
hu15G11.v5 HC F29A (antibody, V domains shown) VH: EVQLVQSGAEVKKPGASVKVSCKASGYTATSYWMHWVRQAPGQRLEWIGEINPTNGRTNYIEKFKSRATLTVDKSASTAYMELSSLRSEDTAVYYCARGTRAYHYWGQGTMVTVSS VL: DIQMTQSPSSLSASVGDRVTITCRASDNLYSNLAWYQQKPGKSPKLLVYDATNLADGVPSRFSGSGSGTDYTLTISSLQPEDFATYYCQHFWGTPLTFGQGTKVEIK | 1.5 | 12.5
hu15G11.v5 LC L33A (antibody, V domains shown) VH: EVQLVQSGAEVKKPGASVKVSCKASGYTFTSYWMHWVRQAPGQRLEWIGEINPTNGRTNYIEKFKSRATLTVDKSASTAYMELSSLRSEDTAVYYCARGTRAYHYWGQGTMVTVSS VL: DIQMTQSPSSLSASVGDRVTITCRASDNLYSNAAWYQQKPGKSPKLLVYDATNLADGVPSRFSGSGSGTDYTLTISSLQPEDFATYYCQHFWGTPLTFGQGTKVEIK | 0.05 | 0.1
hu15G11.v5 HC S31A (antibody, V domains shown) VH: EVQLVQSGAEVKKPGASVKVSCKASGYTFTAYWMHWVRQAPGQRLEWIGEINPTNGRTNYIEKFKSRATLTVDKSASTAYMELSSLRSEDTAVYYCARGTRAYHYWGQGTMVTVSS VL: DIQMTQSPSSLSASVGDRVTITCRASDNLYSNLAWYQQKPGKSPKLLVYDATNLADGVPSRFSGSGSGTDYTLTISSLQPEDFATYYCQHFWGTPLTFGQGTKVEIK | 0.05 | 0.1
hu15G11.v5 LC L29A (antibody, V domains shown) VH: EVQLVQSGAEVKKPGASVKVSCKASGYTFTSYWMHWVRQAPGQRLEWIGEINPTNGRTNYIEKFKSRATLTVDKSASTAYMELSSLRSEDTAVYYCARGTRAYHYWGQGTMVTVSS VL: DIQMTQSPSSLSASVGDRVTITCRASDNAYSNLAWYQQKPGKSPKLLVYDATNLADGVPSRFSGSGSGTDYTLTISSLQPEDFATYYCQHFWGTPLTFGQGTKVEIK | 0.3 | 0.9
hu15G11.v5 LC S31A (antibody, V domains shown) VH: EVQLVQSGAEVKKPGASVKVSCKASGYTFTSYWMHWVRQAPGQRLEWIGEINPTNGRTNYIEKFKSRATLTVDKSASTAYMELSSLRSEDTAVYYCARGTRAYHYWGQGTMVTVSS VL: DIQMTQSPSSLSASVGDRVTITCRASDNLYANLAWYQQKPGKSPKLLVYDATNLADGVPSRFSGSGSGTDYTLTISSLQPEDFATYYCQHFWGTPLTFGQGTKVEIK | 0.3 | 0.7
hu15G11.v5 LC D56A (antibody, V domains shown) VH: EVQLVQSGAEVKKPGASVKVSCKASGYTFTSYWMHWVRQAPGQRLEWIGEINPTNGRTNYIEKFKSRATLTVDKSASTAYMELSSLRSEDTAVYYCARGTRAYHYWGQGTMVTVSS VL: DIQMTQSPSSLSASVGDRVTITCRASDNLYSNLAWYQQKPGKSPKLLVYDATNLAAGVPSRFSGSGSGTDYTLTISSLQPEDFATYYCQHFWGTPLTFGQGTKVEIK | 0.3 | 0.5
hu15G11.v5 HC M34A (antibody, V domains shown) VH: EVQLVQSGAEVKKPGASVKVSCKASGYTFTSYWAHWVRQAPGQRLEWIGEINPTNGRTNYIEKFKSRATLTVDKSASTAYMELSSLRSEDTAVYYCARGTRAYHYWGQGTMVTVSS VL: DIQMTQSPSSLSASVGDRVTITCRASDNLYSNLAWYQQKPGKSPKLLVYDATNLADGVPSRFSGSGSGTDYTLTISSLQPEDFATYYCQHFWGTPLTFGQGTKVEIK | 0.4 | 1.1

Now from value to binder:

EC50 [1] [ng/mL] | EC50 [2] [ng/mL] | Binder
0.4 | 1.4 | hu15G11.v5 HC Y32A (antibody, V domains shown) VH: EVQLVQSGAEVKKPGASVKVSCKASGYTFTSAWMHWVRQAPGQRLEWIGEINPTNGRTNYIEKFKSRATLTVDKSASTAYMELSSLRSEDTAVYYCARGTRAYHYWGQGTMVTVSS VL: DIQMTQSPSSLSASVGDRVTITCRASDNLYSNLAWYQQKPGKSPKLLVYDATNLADGVPSRFSGSGSGTDYTLTISSLQPEDFATYYCQHFWGTPLTFGQGTKVEIK
59.6 | 362 | hu15G11.v5 HC W33A (antibody, V domains shown) VH: EVQLVQSGAEVKKPGASVKVSCKASGYTFTSYAMHWVRQAPGQRLEWIGEINPTNGRTNYIEKFKSRATLTVDKSASTAYMELSSLRSEDTAVYYCARGTRAYHYWGQGTMVTVSS VL: DIQMTQSPSSLSASVGDRVTITCRASDNLYSNLAWYQQKPGKSPKLLVYDATNLADGVPSRFSGSGSGTDYTLTISSLQPEDFATYYCQHFWGTPLTFGQGTKVEIK
0.3 | 0.9 | hu15G11.v5 HC N52A (antibody, V domains shown) VH: EVQLVQSGAEVKKPGASVKVSCKASGYTFTSYWMHWVRQAPGQRLEWIGEIAPTNGRTNYIEKFKSRATLTVDKSASTAYMELSSLRSEDTAVYYCARGTRAYHYWGQGTMVTVSS VL: DIQMTQSPSSLSASVGDRVTITCRASDNLYSNLAWYQQKPGKSPKLLVYDATNLADGVPSRFSGSGSGTDYTLTISSLQPEDFATYYCQHFWGTPLTFGQGTKVEIK
0.2 | 0.5 | hu15G11.v5 LC D50A (antibody, V domains shown) VH: EVQLVQSGAEVKKPGASVKVSCKASGYTFTSYWMHWVRQAPGQRLEWIGEINPTNGRTNYIEKFKSRATLTVDKSASTAYMELSSLRSEDTAVYYCARGTRAYHYWGQGTMVTVSS VL: DIQMTQSPSSLSASVGDRVTITCRASDNLYSNLAWYQQKPGKSPKLLVYAATNLADGVPSRFSGSGSGTDYTLTISSLQPEDFATYYCQHFWGTPLTFGQGTKVEIK
0.3 | 0.7 | hu15G11.v5 HC T53A (antibody, V domains shown) VH: EVQLVQSGAEVKKPGASVKVSCKASGYTFTSYWMHWVRQAPGQRLEWIGEINPANGRTNYIEKFKSRATLTVDKSASTAYMELSSLRSEDTAVYYCARGTRAYHYWGQGTMVTVSS VL: DIQMTQSPSSLSASVGDRVTITCRASDNLYSNLAWYQQKPGKSPKLLVYDATNLADGVPSRFSGSGSGTDYTLTISSLQPEDFATYYCQHFWGTPLTFGQGTKVEIK
0.4 | 0.9 | hu15G11.v5 HC T30A (antibody, V domains shown) VH: EVQLVQSGAEVKKPGASVKVSCKASGYTFASYWMHWVRQAPGQRLEWIGEINPTNGRTNYIEKFKSRATLTVDKSASTAYMELSSLRSEDTAVYYCARGTRAYHYWGQGTMVTVSS VL: DIQMTQSPSSLSASVGDRVTITCRASDNLYSNLAWYQQKPGKSPKLLVYDATNLADGVPSRFSGSGSGTDYTLTISSLQPEDFATYYCQHFWGTPLTFGQGTKVEIK
0.3 | 1 | hu15G11.v5 LC Y30A (antibody, V domains shown) VH: EVQLVQSGAEVKKPGASVKVSCKASGYTFTSYWMHWVRQAPGQRLEWIGEINPTNGRTNYIEKFKSRATLTVDKSASTAYMELSSLRSEDTAVYYCARGTRAYHYWGQGTMVTVSS VL: DIQMTQSPSSLSASVGDRVTITCRASDNLASNLAWYQQKPGKSPKLLVYDATNLADGVPSRFSGSGSGTDYTLTISSLQPEDFATYYCQHFWGTPLTFGQGTKVEIK
1.6 | 4 | hu15G11.v5 LC N32A (antibody, V domains shown) VH: EVQLVQSGAEVKKPGASVKVSCKASGYTFTSYWMHWVRQAPGQRLEWIGEINPTNGRTNYIEKFKSRATLTVDKSASTAYMELSSLRSEDTAVYYCARGTRAYHYWGQGTMVTVSS VL: DIQMTQSPSSLSASVGDRVTITCRASDNLYSALAWYQQKPGKSPKLLVYDATNLADGVPSRFSGSGSGTDYTLTISSLQPEDFATYYCQHFWGTPLTFGQGTKVEIK
0.2 | 0.3 | hu15G11.v5 LC T52A (antibody, V domains shown) VH: EVQLVQSGAEVKKPGASVKVSCKASGYTFTSYWMHWVRQAPGQRLEWIGEINPTNGRTNYIEKFKSRATLTVDKSASTAYMELSSLRSEDTAVYYCARGTRAYHYWGQGTMVTVSS VL: DIQMTQSPSSLSASVGDRVTITCRASDNLYSNLAWYQQKPGKSPKLLVYDAANLADGVPSRFSGSGSGTDYTLTISSLQPEDFATYYCQHFWGTPLTFGQGTKVEIK
0.3 | 0.6 | hu15G11.v5 LC N53A (antibody, V domains shown) VH: EVQLVQSGAEVKKPGASVKVSCKASGYTFTSYWMHWVRQAPGQRLEWIGEINPTNGRTNYIEKFKSRATLTVDKSASTAYMELSSLRSEDTAVYYCARGTRAYHYWGQGTMVTVSS VL: DIQMTQSPSSLSASVGDRVTITCRASDNLYSNLAWYQQKPGKSPKLLVYDATALADGVPSRFSGSGSGTDYTLTISSLQPEDFATYYCQHFWGTPLTFGQGTKVEIK
0.2 | 0.8 | hu15G11.v5 LC D27A (antibody, V domains shown) VH: EVQLVQSGAEVKKPGASVKVSCKASGYTFTSYWMHWVRQAPGQRLEWIGEINPTNGRTNYIEKFKSRATLTVDKSASTAYMELSSLRSEDTAVYYCARGTRAYHYWGQGTMVTVSS VL: DIQMTQSPSSLSASVGDRVTITCRASANLYSNLAWYQQKPGKSPKLLVYDATNLADGVPSRFSGSGSGTDYTLTISSLQPEDFATYYCQHFWGTPLTFGQGTKVEIK
